According to publication PMC5020499, “Crystal structures of archaeal 2-oxoacid:ferredoxin oxidoreductases from Sulfolobus tokodaii” (Scientific Reports, 2016):
Changes are numbered by the printed parent chain. Numbers in names are those of the source.

B1: StOFOR1 (Sulfurisphaera tokodaii str. 7) (protein)
chain 1: MRLSWVIGGAQGTGIDTAANIFGNAVASAGYYIYGNREYYSNIKGRHSYFSLTISDKRVRSNTQKIDILVSFDAETVFQHFYDVKDILIYNKAVETTKIDAVQSMEPELAERIKDFLTKQGYETTVKGALEYASKNNVTLIPVNYDEIAKKVADEMKVPLSVTERVKNIVGITISYKLLGLDVNYLIEAINSTFKQDLYRKMNELAVKDSYDIVESRYNLKPSSKERRRFWLDGNTAVAIGKIYGGVRFQSYYPITPASDESVYIEAHQDVLMEDPITGDKKKGTIVVVQAEDELAAINMAIGAALTGVRAATATSGPGFSLMVEGLGWAGMNEVPVVITYYIRGGPSTGLPTRTAQSDLIFPIFAGHGEFPKIVLASGDHAEAFKDAIWALNLAEKYQTPVIHLVEKTLANSYSTIPYEELELDKLKAERGKIVESGDISYKRFKFTEDGISPRAFLGKATMYYTGDEHNEEGHISEDVVNRTMMYEKRMKKLEVADKEIPEESRVKIYGDLNSRNLIITWGSPTGVLRDILEESNFDFTLLQIRMFSPFPKNLVSKLMEGRDKIITVEGNYLAQTSLLVKMYTGKDVTNSILKWNGRPFLRDELEEALIKVIKDGEKRVVLNGGI
chain 2: MAAFKPQWNDWCPGCGNFGILNAEQQAIVELGVDTKNVVVVSGIGCSGKIPHFFRTPISGVHTLHGRAIAFATGIKLSNPDLVVIVNGGDGDLLGIGAGHFVAAGRRNVDMVVILHDNGVYGLTKGQASPTLKRGEKPKSLPRPNINDAVNPIALAISSGYTFVARGYAYDVKHLKELIKSAIKHKGLALIDVLQPCPTYNDINTKEWYDKRIYKLDTLPDWDPVVKKPEEVNEKIKRAIDKSLEWGDRIPIGIFYQNELVPSYEERIKANSPAYLDYTPAKQLIEKEGKLTTIIDPLLKEREVD
notes: recombinant in E. coli C43(DE3), pET-17b-based pOFORAB, untagged; 70 kDa alpha and 34 kDa beta subunits; (ab)2 heterotetramer with TPP, Mg2+, [4Fe-4S]
B2: StOFOR1 (Sulfurisphaera tokodaii str. 7; Q96Y66:S41A) (protein)
chain 1: B1 chain 1 with S41A
chain 2: B1 chain 2
notes: as for B1
B3: StOFOR1 (Sulfurisphaera tokodaii str. 7; Q96Y66:T349L) (protein)
chain 1: B1 chain 1 with T349L
chain 2: B1 chain 2
notes: as for B1
B4: StOFOR2 (Sulfurisphaera tokodaii str. 7) (protein)
chain 1: MTRIVWMIGGAQGLGVDTSANIFGNAVAKAGYYLFGNREYYSNIKGRHSYFEVVISEKPIRSLSSYVNILASFDAETVFQHFTETKEYLIYNVEYENTTVDLVKSMEPEMAEQVKEALSKERLGFTIKDVLEYLKRRGVKVIGFNYTELIKKIADTFKVPMSVVERAKNMIAVGASYGLLGLKFDYLKDAISSTFKNELFIKFNTMAAELGYNSVPNVYKLQEYKIEKQRIQVDGNTISAMGKLAGGLRFQSYYPITPASDESVYIEANQNLDMIVEGNELRKGGVVVVQAEDELAAINMAVGAALTGVRSATATSGPGFSLMSEGISWAGMNEVPVVITYYMRGAPATGLPTRSGQADLKFALNVGHGEFPRIVIASGDHVEIFWDAIWALNLAEKYQTPVIHIIEKTLANAYSVFEEELITNRPYVIERGKIVKPTSDYFNRFEVTEDGISPRVFLGQASIFYTGDEHNEEGHITENSINRMKMYEKRNKKLETADKEIPEEQRVNIVGDADIVLLTWGSPKGAILDAMEELSKDGIKTMMVQVKMFNPYPKNLMKKILSGKSKIIAVENNYNAQGAEVLAEKTGIFATNYILKWTGRPITREEVIEGIKKILERDEKRVVLYGGA
chain 2: MVERKPVFVDWCPGCGDFGILRAEEMAIRELGINPKSVVIVSGIGCSGKIPHFMNLPISGVHTLHGRSIAFATGIKLSNPSLEVIVNVGDGDGLGIGMGHFVHLGRRNIDIAVLVHNNGVYGLTKGQASPTLHRGEKTKSLPKPNIMDAVNPLAVALAAGYTFVARGYAYDVMHLKELIKKAILHKGSALVDILQPCPTYNDINTKEWYDKRVYKLDNVPGWDPVVRKEEEAQKKFEQAIMKSYEWGEKIPIGIFYQNELVPTFEDRLTSNIPNYREYYPAKQQIEINGISTTKIDELIKAKRI
notes: recombinant in E. coli C43(DE3), genes from S. tokodaii genomic DNA in pOFORAB (pET-17b based), untagged; (ab)2 heterotetramer with TPP, Mg2+, [4Fe-4S]
B5: StOFOR1 (Sulfurisphaera tokodaii str. 7; Q96Y68:K49I) (protein)
chain 1: B1 chain 1
chain 2: B1 chain 2 with K49I
notes: as for B1

substrate: O=C(O)CCC(=O)C(=O)O; assay: purified protein; assay type: biochemical, Sulfurisphaera tokodaii; conditions: 0.25 mM CoA, 2 mM methylviologen, 50 mM Tris-HCl pH 8.5, 80 °C

Point of comparison: B2, Km 3200 ± 400 µM. Against it:
- B1 — 1.5-fold lower, 2100 ± 300 µM
- B3 — within 1.5-fold, 2300 ± 300 µM
- B4 — 4.7-fold higher, 15000 ± 2000 µM

Point of comparison: B2, Vmax 1.1 µmol/min/mg. Against it:
- B1 — higher, 2.7 µmol/min/mg
- B3 — higher, 2 µmol/min/mg
- B4 — higher, 1.4 µmol/min/mg

substrate: CC(=O)C(=O)O; assay: purified protein; assay type: biochemical, Sulfurisphaera tokodaii; conditions: 0.25 mM CoA, 2 mM methylviologen, 50 mM Tris-HCl pH 8.5, 80 °C

Point of comparison: B1, Km 320 ± 80 µM. Against it:
- B2 — within error, 490 ± 90 µM
- B3 — within error, 510 ± 110 µM
- B5 — 2.8-fold higher, 910 ± 120 µM
- B4 — 5-fold higher, 1600 ± 300 µM

Point of comparison: B4, Vmax 7 µmol/min/mg. Against it:
- B1 — higher, 7.5 µmol/min/mg
- B2 — lower, 2.2 µmol/min/mg
- B3 — lower, 3.2 µmol/min/mg
- B5 — lower, 2.1 µmol/min/mg
